Measurements as given in article PMC5067715, “Structural characterization of the circadian clock protein complex composed of KaiB and KaiC by inverse contrast-matching small-angle neutron scattering” (Scientific Reports, 2016).
Where a chain is given by its changes, count along the chain named.

T1: KaiCDE (KaiC mutant with aspartate and glutamate residues at positions 431 and 432) (Synechococcus elongatus PCC 7942, UniProt Q79PF4 1-519, aspartate at position 431 | glutamate at position 432)
T1 construct: KaiC, circadian clock protein of Synechococcus elongatus PCC 7942, mimic of hyperphosphorylated KaiC; source: Escherichia coli, Strep-tagged recombinant protein, purified
T1 sequence (looked up): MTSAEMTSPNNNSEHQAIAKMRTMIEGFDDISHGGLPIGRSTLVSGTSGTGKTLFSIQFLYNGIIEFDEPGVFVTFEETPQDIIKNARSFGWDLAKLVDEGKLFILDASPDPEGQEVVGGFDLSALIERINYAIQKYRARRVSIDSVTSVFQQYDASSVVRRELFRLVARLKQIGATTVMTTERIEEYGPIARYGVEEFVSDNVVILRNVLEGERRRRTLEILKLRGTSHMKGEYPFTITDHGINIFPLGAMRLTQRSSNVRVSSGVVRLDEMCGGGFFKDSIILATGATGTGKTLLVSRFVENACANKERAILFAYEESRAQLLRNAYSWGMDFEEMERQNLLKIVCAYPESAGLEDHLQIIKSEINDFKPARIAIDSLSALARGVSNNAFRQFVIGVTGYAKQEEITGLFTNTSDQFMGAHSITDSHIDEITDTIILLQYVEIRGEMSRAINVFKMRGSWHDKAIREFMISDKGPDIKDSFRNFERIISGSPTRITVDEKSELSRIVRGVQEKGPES

T2: wild-type KaiC (Synechococcus elongatus PCC 7942, UniProt Q79PF4 1-519)
T2 construct: KaiC, circadian clock protein of Synechococcus elongatus PCC 7942; also called KaiCWT; source: Escherichia coli, Strep-tagged recombinant protein, purified
T2 sequence (looked up): T1 sequence (looked up) with D431S, E432T

B1: KaiB (natural protein, Synechococcus elongatus PCC 7942, UniProt Q79PF5 1-102, looked up)
chain: MSPRKTYILKLYVAGNTPNSVRALKTLKNILEVEFQGVYALKVIDVLKNPQLAEEDKILATPTLAKVLPLPVRRIIGDLSDREKVLIGLDLLYGELQDSDDF
notes: KaiB, circadian clock protein of Synechococcus elongatus PCC 7942; printed mass of KaiB 14 kDa; Six KaiB protomers stand in the complex with the KaiC hexamer; also called h-KaiB; source: Escherichia coli, Strep-tagged recombinant protein, purified
B2: KaiCDT (KaiC phospho-mimicking mutant with aspartate at Ser431) (natural protein, Synechococcus elongatus PCC 7942, UniProt Q79PF4 1-519, looked up)
chain: T1 sequence (looked up) with E432T
notes: KaiC, circadian clock protein of Synechococcus elongatus PCC 7942, mono-phosphorylation mimic at Ser431; 72d-KaiCDT is the same protein, 72.2% deuterated, used in iCM-SANS; Printed mass of KaiC 65 kDa; also called h-KaiCDT; 72d-KaiCDT

What was measured:
[1] = molecular target: B2; experiment: native MS; nanoflow ESI-MS under non-denaturing conditions; 20 uM KaiCDT mixed with 3.3, 10, 20 and 30 uM KaiB (monomer), 30 °C for 4 h, exchanged into 150 mM ammonium acetate pH 7.5; conditions: both partners purified
[2] = molecular target: T1, KaiCDE (KaiC mutant with aspartate and …); experiment: native gel or EMSA; BN-PAGE (NativePAGE Novex Bis-Tris gel); KaiC variants incubated with KaiB at 30 °C for 12 h; conditions: both partners purified
wild-type KaiC = molecular target: T2, wild-type KaiC; experiment: as above; conditions: both partners purified
[3] = molecular target: the molecule itself; experiment: native MS; nanoflow ESI-MS under non-denaturing conditions; 20 uM KaiCDT mixed with 3.3, 10, 20 and 30 uM KaiB (monomer), 30 °C for 4 h, exchanged into 150 mM ammonium acetate pH 7.5

Binder	stoichiometry N [1]	binding result [2]	binding result (wild-type KaiC)	stoichiometry N [3]
B1	6 KaiB protomers per KaiC hexamer	binds	binds	–
B2	–	–	–	6
